The values that follow come from paper PMC11215065.

Usually stoichiometry N stands for the number of molecules, sites or subunits per partner or assembly. One may read the Kd as the free concentration of one partner at which half of the binding sites on the other are occupied at equilibrium, for simple one-to-one binding.

Where “and” joins values, the source holds several entries; their conditions need not be identical. Identical values can stand only once.

In test [1] the target is ULBP1-Fc. The test is described as follows: SEC-MALS; EndoH-deglycosylated U20 with ULBP1-Fc; 1 mg/ml, PBS, room temperature, WTC-030S5 column.
In test [2] the target is ULBP1 on transduced HEK293 cells (UniProt Q9BZM6). As to the kind of experiment: flow cytometry on cells; ULBP1 expressing cells pretreated with soluble U20 at various concentrations, then stained with APC conjugated anti-ULBP1 (R&D Systems FAB1380A).
For test [3] the target is unchanged. The test is described as follows: flow cytometry on cells; ULBP1 (or ULBP3) HEK293 cells pretreated with sU20 at various concentrations for 5 minutes on ice, then stained with 5 nM NKG2D-Fc. For orientation: A flow cytometer gives signals particle by particle.
The target in test [4] is Soluble U20 extracellular domain (sU20) of HHV-6B (HHV-6B). The test is described as follows: SEC-SAXS; EndoH-treated U20 alone, 4.5 mg/mL, Superdex 200 Increase 5/150 GL in line with SAXS; mass by Porod volume. (In general: In gel filtration, larger molecules generally elute earlier.)
Test [5] deals with ULBP1-6xHIS soluble construct (ULBP1-6H). The test is described as follows: SEC-SAXS; equimolar mixture of EndoH-treated U20 and ULBP1-6H, 4.5 mg/mL, Superdex 200 Increase 5/150 GL in line with SAXS.
The target in test [6] is ULBP1-Fc. As to the kind of experiment: SPR; Biacore 3000; biotinylated ULBP1-Fc (1000-2500 RU) on a Neutravidin coated CM5 chip; U20 injected at 0.125-32 μM; CD200 receptor Fc flow cell subtracted; equilibrium fit, one site specific binding, apparent; 20°C. In general terms: Surface plasmon resonance follows binding to a sensor surface in real time, without labels.
Test [7] deals with Soluble U20 extracellular domain (sU20) of HHV-6B (HHV-6B). As to the kind of experiment: SEC-MALS; U20 with intact high mannose glycans, alone; 1 mg/ml, PBS, room temperature.
Test [8] shares this target. The test is described as follows: SEC-MALS; EndoH-treated U20 alone; 1 mg/ml, PBS, room temperature.
In another test the target is NKG2D-Fc (UniProt P26718). The test is described as follows: SPR; format not told in the text (Supplementary Figure S1A).
Chain of NKG2D-Fc (P26718 73-216): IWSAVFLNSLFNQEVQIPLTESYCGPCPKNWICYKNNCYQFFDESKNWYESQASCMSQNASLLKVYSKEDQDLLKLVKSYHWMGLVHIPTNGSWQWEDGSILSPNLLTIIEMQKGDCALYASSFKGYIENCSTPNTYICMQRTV

Chain of Soluble U20 extracellular domain (sU20) of HHV-6B (domain or fragment) (Q9QJ46 16-321 limits assumed): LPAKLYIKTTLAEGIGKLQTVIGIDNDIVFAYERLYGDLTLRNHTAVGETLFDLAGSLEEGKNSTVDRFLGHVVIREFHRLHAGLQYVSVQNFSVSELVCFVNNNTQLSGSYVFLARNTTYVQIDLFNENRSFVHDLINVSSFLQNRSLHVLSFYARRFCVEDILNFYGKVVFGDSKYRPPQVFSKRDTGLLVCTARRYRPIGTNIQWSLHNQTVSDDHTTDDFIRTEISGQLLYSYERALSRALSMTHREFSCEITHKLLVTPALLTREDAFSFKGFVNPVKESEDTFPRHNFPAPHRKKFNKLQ

As for “Soluble U20 extracellular domain (sU20) of HHV-6B (domain or fragment)”, the stoichiometry N with ULBP1-Fc [1] stood at 1; in [4], 2; in test [5] it was 1; in [7], 2; in test [8] it was 2. Moreover, the reduction of anti-ULBP1 antibody binding to ULBP1 cells at 0.125 μM sU20 in test [2] was 60%. Further, the decrease in NKG2D-Fc binding to ULBP1 cells at 5 μM sU20 in [3] is 90%. The dissociation half-life with ULBP1-Fc [6] was 63 s and 124 s.

The substance “ULBP1-6xHIS soluble construct (ULBP1-6H) (domain or fragment)” gave a Kd with NKG2D-Fc of 1000 nM.
